CN116655791A (ZHEJIANG CHUQI BIOLOGICAL TECH CO LTD, dated 2023)

Molecular target: T1, 人泌乳素受体-ECD蛋白 (25-234aa, Factor Xa site, 6xHis) (human)
T1 chain: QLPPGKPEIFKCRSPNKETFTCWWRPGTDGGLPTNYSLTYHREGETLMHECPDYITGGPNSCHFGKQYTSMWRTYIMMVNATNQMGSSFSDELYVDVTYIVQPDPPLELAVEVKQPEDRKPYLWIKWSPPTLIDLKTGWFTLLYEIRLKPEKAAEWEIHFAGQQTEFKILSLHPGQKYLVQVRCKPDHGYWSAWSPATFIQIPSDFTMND
Experiment: indirect ELISA on coated PRLR-ECD

B1: 抗泌乳素受体的纳米抗体融合蛋白CQ24-Fc (Fc fusion)
chain: SQVQLVESGGGSVQAGGSLRLSCVASGYTRRGNCLGWFRQAPGKEREGVASIYASSGWTSYADSVKGRFTISLDNAKTMVYLQMNSLNPEDTAMYFCAAADTGLCGLGARIYSYWGQGTQVTVSSDKTHTCPPCPAPEAAGGPSVFLFPPKPKDTLMISRTPEVTCVVVDVSHEDPEVKFNWYVDGVEVHNAKTKPREEQYNSTYRVVSVLTVLHQDWLNGKEYKCKVSNKALPAPIEKTISKAKGQPREPQVYTLPPSREEMTKNQVSLTCLVKGFYPSDIAVEWESNGQPENNYKTTPPVLDSDGSFFLYSKLTVDKSRWQQGNVFSCSVMHEALHNHYTQKSLSLSLGK
notes: the signal peptide is left out here; also called CQ24纳米抗体; CQ24-VHH
B1 gave an EC50 of 4.6 ng/mL.
